Data published in PMC7572726 (Nature, 2020).

Biological target: the molecule itself
Assay: crystal structure

B1: Flavobacteriaceae sp. STING (ΔTM) (domain or fragment)
chain: EAEYSPAFALAVGYFKNFIFPAITQIKENGEVNPKICIYKPKHFDELTSTNIDMIKAELTNKKYNLSEINLSLKGARARDILTLNKKSKIHSYFDFPNTLLSLYSYVDFKIASSNNNSSELKKKKFVELLIEQFYLKLNELIQENNLTNNITFCDKNLQGL
stoichiometry N: 2
